Test results: publication PMC9482650, “Quantitative fragmentomics allow affinity mapping of interactomes” (Nature Communications, 2022)

Key:
Assay in all cases: holdup assay
Parameters in all cases: key: below the threshold = too weak to quantify, mostly under pKd 3.1 to 4
Conditions in all cases: plain residues with an end cap or a label only (N-terminal biotin on a linker: ado-ado)
NHERF3_3, Q5T2W1 = biological target: T1, NHERF3_3, Q5T2W1
T1 sequence (Q5T2W1 238-333, limits assumed, looked up): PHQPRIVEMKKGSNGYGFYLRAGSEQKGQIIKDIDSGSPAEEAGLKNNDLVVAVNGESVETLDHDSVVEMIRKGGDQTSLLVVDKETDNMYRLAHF

Inadl_5, Q8NI35 = biological target: Inadl_5, Q8NI35
DLG1_2, Q12959 = biological target: DLG1_2, Q12959
APBA2_2, Q99767 = biological target: T2, APBA2_2, Q99767
T2 sequence (Q99767 654-744, limits assumed, looked up): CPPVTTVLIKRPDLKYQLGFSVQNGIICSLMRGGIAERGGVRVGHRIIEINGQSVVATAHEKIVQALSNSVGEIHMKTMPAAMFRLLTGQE

DLG3_1, Q92796 = biological target: T3, DLG3_1, Q92796
T3 sequence (Q92796 125-227, limits assumed, looked up): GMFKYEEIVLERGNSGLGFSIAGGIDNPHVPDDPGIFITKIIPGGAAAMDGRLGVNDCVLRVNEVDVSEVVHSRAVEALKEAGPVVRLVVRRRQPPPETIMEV

MAGI2_3, Q86UL8 = biological target: MAGI2_3, Q86UL8
GRIP2_7, Q9C0E4 = biological target: GRIP2_7, Q9C0E4
LRRC7, Q96NW7 = biological target: T4, LRRC7, Q96NW7
T4 sequence (Q96NW7 1440-1537, limits assumed, looked up): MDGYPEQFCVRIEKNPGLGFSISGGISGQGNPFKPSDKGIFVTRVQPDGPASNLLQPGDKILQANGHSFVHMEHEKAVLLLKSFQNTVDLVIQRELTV

FRMPD4, Q14CM0 = biological target: FRMPD4, Q14CM0
IL16_4, Q14005 = biological target: IL16_4, Q14005
NHERF3_1, Q5T2W1 = biological target: T5, NHERF3_1, Q5T2W1
T5 sequence (Q5T2W1 4-100, limits assumed, looked up): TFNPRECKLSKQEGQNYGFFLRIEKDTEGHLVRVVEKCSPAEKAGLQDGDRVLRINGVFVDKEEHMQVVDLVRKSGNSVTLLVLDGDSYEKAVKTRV

NHERF3_4, Q5T2W1 = biological target: T6, NHERF3_4, Q5T2W1
T6 sequence (Q5T2W1 373-468, limits assumed, looked up): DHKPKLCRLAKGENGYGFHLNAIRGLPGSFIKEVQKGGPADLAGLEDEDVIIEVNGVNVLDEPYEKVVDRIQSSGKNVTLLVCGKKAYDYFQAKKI

ARHGAP21, Q5T5U3 = biological target: T7, ARHGAP21, Q5T5U3
T7 sequence (Q5T5U3 45-169, limits assumed, looked up): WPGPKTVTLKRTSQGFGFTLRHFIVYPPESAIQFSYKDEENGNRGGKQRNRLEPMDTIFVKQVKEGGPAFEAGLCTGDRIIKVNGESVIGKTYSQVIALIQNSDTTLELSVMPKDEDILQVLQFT

DFNB31_2, Q9P202 = biological target: T8, DFNB31_2, Q9P202
T8 sequence (Q9P202 274-371, limits assumed, looked up): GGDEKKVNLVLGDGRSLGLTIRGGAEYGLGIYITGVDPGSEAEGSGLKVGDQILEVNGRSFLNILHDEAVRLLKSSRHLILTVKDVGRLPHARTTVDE

MAGI2_2, Q86UL8 = biological target: MAGI2_2, Q86UL8
GRIP1_7, Q9Y3R0 = biological target: T9, GRIP1_7, Q9Y3R0
T9 sequence (Q9Y3R0 999-1096, limits assumed, looked up): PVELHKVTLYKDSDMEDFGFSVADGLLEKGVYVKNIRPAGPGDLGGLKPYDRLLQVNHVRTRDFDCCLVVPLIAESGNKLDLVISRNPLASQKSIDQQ

Inadl_2, Q8NI35 = biological target: Inadl_2, Q8NI35
SIPA1L2, Q9P2F8 = biological target: T10, SIPA1L2, Q9P2F8
T10 sequence (Q9P2F8 945-1036, limits assumed, looked up): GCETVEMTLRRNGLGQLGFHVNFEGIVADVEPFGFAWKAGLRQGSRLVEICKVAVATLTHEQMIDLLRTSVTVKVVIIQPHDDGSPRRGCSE

FRMPD2_1, Q68DX3 = biological target: FRMPD2_1, Q68DX3
GRID2IP_1, A4D2P6 = biological target: GRID2IP_1, A4D2P6
APBA2_1, Q99767 = biological target: T11, APBA2_1, Q99767
T11 sequence (Q99767 563-664, limits assumed, looked up): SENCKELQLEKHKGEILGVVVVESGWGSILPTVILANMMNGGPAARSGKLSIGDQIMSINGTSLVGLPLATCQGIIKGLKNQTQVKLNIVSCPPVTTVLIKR

DLG1_3, Q12959 = biological target: DLG1_3, Q12959
HTRA2, O43464 = biological target: HTRA2, O43464
DLG2_2, Q15700 = biological target: DLG2_2, Q15700
GIPC2, Q8TF65 = biological target: GIPC2, Q8TF65
PTPN13_1, Q12923 = biological target: T12, PTPN13_1, Q12923
T12 sequence (Q12923 1088-1188, limits assumed, looked up): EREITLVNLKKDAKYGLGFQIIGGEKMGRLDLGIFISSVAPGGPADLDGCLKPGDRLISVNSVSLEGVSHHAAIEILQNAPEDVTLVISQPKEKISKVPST

Chain of HTRA2, O43464 (O43464 355-458): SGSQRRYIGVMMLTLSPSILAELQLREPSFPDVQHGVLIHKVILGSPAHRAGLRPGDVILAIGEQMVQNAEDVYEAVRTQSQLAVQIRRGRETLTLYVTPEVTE
Chain of GRID2IP_1, A4D2P6 (A4D2P6 1-87): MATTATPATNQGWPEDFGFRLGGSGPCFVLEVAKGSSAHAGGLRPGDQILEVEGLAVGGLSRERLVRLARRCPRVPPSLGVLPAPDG
Chain of FRMPD4, Q14CM0 (Q14CM0 67-160): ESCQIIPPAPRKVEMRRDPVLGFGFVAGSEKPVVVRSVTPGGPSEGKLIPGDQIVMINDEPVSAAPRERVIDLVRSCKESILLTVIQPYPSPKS
Chain of DLG1_3, Q12959 (Q12959 457-571): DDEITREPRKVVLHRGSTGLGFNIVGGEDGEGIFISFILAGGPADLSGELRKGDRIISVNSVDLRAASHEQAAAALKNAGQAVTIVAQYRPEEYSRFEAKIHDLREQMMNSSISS
Chain of MAGI2_2, Q86UL8 (Q86UL8 410-522): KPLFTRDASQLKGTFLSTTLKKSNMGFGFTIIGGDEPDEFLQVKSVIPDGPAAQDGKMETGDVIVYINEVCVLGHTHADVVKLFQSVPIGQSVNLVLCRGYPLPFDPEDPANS
Chain of FRMPD2_1, Q68DX3 (Q68DX3 770-861): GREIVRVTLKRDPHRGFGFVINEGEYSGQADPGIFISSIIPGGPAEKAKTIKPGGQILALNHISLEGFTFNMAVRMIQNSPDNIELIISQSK
Chain of IL16_4, Q14005 (Q14005 1229-1329): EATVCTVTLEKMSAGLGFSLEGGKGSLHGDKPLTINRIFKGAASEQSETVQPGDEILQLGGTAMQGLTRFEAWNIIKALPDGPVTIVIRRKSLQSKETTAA
Chain of Inadl_2, Q8NI35 (Q8NI35 238-335): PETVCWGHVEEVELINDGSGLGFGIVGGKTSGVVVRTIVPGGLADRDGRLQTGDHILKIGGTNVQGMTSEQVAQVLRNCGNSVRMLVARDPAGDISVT
Chain of Inadl_5, Q8NI35 (Q8NI35 673-780): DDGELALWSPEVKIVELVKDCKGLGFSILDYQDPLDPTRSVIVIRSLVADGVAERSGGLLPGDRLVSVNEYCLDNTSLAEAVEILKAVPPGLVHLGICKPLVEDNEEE
Chain of GRIP2_7, Q9C0E4 (Q9C0E4 934-1023): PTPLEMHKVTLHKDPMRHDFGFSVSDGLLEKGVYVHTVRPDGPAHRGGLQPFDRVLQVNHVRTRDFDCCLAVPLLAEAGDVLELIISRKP
Chain of GIPC2, Q8TF65 (Q8TF65 112-203): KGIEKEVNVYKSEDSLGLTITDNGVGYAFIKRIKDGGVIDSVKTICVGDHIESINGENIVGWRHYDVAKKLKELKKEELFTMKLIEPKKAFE
Chain of DLG1_2, Q12959 (Q12959 314-412): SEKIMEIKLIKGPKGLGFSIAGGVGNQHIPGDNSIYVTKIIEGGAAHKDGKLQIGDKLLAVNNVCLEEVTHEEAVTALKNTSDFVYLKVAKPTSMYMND
Chain of MAGI2_3, Q86UL8 (Q86UL8 600-682): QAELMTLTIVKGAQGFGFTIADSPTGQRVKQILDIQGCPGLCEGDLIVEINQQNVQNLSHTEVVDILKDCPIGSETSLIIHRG
Chain of DLG2_2, Q15700 (Q15700 189-283): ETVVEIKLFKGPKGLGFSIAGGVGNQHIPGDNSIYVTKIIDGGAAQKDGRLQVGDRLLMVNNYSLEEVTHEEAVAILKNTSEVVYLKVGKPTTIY

pKd (NHERF3_3, Q5T2W1)	pKd (Inadl_5, Q8NI35)	pKd (DLG1_2, Q12959)	pKd (APBA2_2, Q99767)	pKd (DLG3_1, Q92796)	pKd (MAGI2_3, Q86UL8)	pKd (GRIP2_7, Q9C0E4)	pKd (LRRC7, Q96NW7)	pKd (FRMPD4, Q14CM0)	pKd (IL16_4, Q14005)	pKd (NHERF3_1, Q5T2W1)	pKd (NHERF3_4, Q5T2W1)	pKd (ARHGAP21, Q5T5U3)	pKd (DFNB31_2, Q9P202)	pKd (MAGI2_2, Q86UL8)	pKd (GRIP1_7, Q9Y3R0)	pKd (Inadl_2, Q8NI35)	pKd (SIPA1L2, Q9P2F8)	pKd (FRMPD2_1, Q68DX3)	pKd (GRID2IP_1, A4D2P6)	Binder	also measured
below the threshold	3.49	5.53	3.49	4.48	3.82	3.66	below the threshold	below the threshold	below the threshold	3.63	3.55	4.01	below the threshold	5.78	below the threshold	below the threshold	below the threshold	3.89	3.6	THHRKIHTRV [ZNF599, Q96NL3]	pKd (APBA2_1, Q99767): below the threshold; pKd (DLG1_3, Q12959): 4.15; pKd (HTRA2, O43464): below the threshold; pKd (DLG2_2, Q15700): 5.38; pKd (GIPC2, Q8TF65): 3.56; pKd (PTPN13_1, Q12923): below the threshold
3.85	below the threshold	below the threshold	below the threshold	below the threshold	3.51	below the threshold	below the threshold	4.05	3.61	5.58	below the threshold	below the threshold	below the threshold	below the threshold	below the threshold	below the threshold	below the threshold	below the threshold	below the threshold	AKADAQESRL [PLCB2, Q00722]	pKd (APBA2_1, Q99767): below the threshold; pKd (DLG1_3, Q12959): below the threshold; pKd (HTRA2, O43464): below the threshold; pKd (DLG2_2, Q15700): below the threshold; pKd (GIPC2, Q8TF65): below the threshold; pKd (PTPN13_1, Q12923): below the threshold

The remaining lines, values behind:

Binder	pKd (NHERF3_3, Q5T2W1)	pKd (Inadl_5, Q8NI35)	pKd (DLG1_2, Q12959)	pKd (APBA2_2, Q99767)	pKd (DLG3_1, Q92796)	pKd (MAGI2_3, Q86UL8)	pKd (GRIP2_7, Q9C0E4)	pKd (LRRC7, Q96NW7)	pKd (FRMPD4, Q14CM0)	pKd (IL16_4, Q14005)	pKd (NHERF3_1, Q5T2W1)	pKd (NHERF3_4, Q5T2W1)	pKd (ARHGAP21, Q5T5U3)	pKd (DFNB31_2, Q9P202)	pKd (MAGI2_2, Q86UL8)	pKd (GRIP1_7, Q9Y3R0)	pKd (Inadl_2, Q8NI35)	pKd (SIPA1L2, Q9P2F8)	pKd (FRMPD2_1, Q68DX3)	pKd (GRID2IP_1, A4D2P6)	also measured
VISSDDLTEL [CAPN6, Q9Y6Q1]	below the threshold	below the threshold	below the threshold	below the threshold	below the threshold	3.68	below the threshold	below the threshold	4.73	3.7	3.67	below the threshold	below the threshold	below the threshold	below the threshold	below the threshold	below the threshold	below the threshold	below the threshold	below the threshold	pKd (APBA2_1, Q99767): below the threshold; pKd (DLG1_3, Q12959): below the threshold; pKd (HTRA2, O43464): below the threshold; pKd (DLG2_2, Q15700): below the threshold; pKd (GIPC2, Q8TF65): below the threshold; pKd (PTPN13_1, Q12923): below the threshold
TFSRRPKTRV [CD226, Q15762]	3.63	below the threshold	below the threshold	below the threshold	below the threshold	below the threshold	below the threshold	below the threshold	below the threshold	below the threshold	below the threshold	below the threshold	4.06	below the threshold	5.31	below the threshold	below the threshold	below the threshold	3.73	below the threshold	pKd (APBA2_1, Q99767): 3.55; pKd (DLG1_3, Q12959): below the threshold; pKd (HTRA2, O43464): below the threshold; pKd (DLG2_2, Q15700): below the threshold; pKd (GIPC2, Q8TF65): below the threshold; pKd (PTPN13_1, Q12923): below the threshold
